Test [1] deals with UBE2D2 (1–147), from the plasmid pHis//2 Hs UBE2D2 (1–147) (human) (UniProt P62837). Description: BLI. Particulars: enzyme.
The target in test [2] is CHIP Y230Cfs∗9, recombinant, C-terminal His tag (human) (UniProt Q9UNE7). The test is described as follows: mass photometry; Refeyn OneMP; CHIP at 50 nM final (a subset also at 20 nM and 100 nM) in 20 mM HEPES pH 8.0, 200 mM NaCl; self-association, oligomeric states by mass.

CHIP Y230Cfs∗9, recombinant, C-terminal His tag, sequence (Q9UNE7 whole entry): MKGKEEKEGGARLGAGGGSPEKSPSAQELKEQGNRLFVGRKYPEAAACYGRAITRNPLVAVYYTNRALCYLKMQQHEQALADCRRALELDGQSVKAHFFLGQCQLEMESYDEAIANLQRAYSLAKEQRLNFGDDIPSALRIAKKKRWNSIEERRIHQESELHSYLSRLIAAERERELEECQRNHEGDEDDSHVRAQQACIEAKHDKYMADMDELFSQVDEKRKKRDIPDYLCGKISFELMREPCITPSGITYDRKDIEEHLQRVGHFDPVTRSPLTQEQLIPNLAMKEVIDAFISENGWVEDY
CHIP L275Dfs∗16, recombinant, C-terminal His tag, sequence (Q9UNE7 whole entry): as above
UBE2D2 (1–147), from the plasmid pHis//2 Hs UBE2D2 (1–147) (human), sequence (P62837 whole entry): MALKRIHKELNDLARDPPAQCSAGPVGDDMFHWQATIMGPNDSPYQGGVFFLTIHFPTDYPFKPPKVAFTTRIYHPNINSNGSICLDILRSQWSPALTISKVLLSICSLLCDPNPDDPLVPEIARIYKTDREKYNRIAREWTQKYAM

On to “CHIP L275Dfs∗16, recombinant, C-terminal His tag (from UniProt Q9UNE7-1 1-303)”, for which the dissociation constant Kd in test [1] was 308 µM.
Regarding “CHIP Y230Cfs∗9, recombinant, C-terminal His tag (from UniProt Q9UNE7-1 1-303) (enzyme)”, in test [2], the percent of the protein as dimer was determined as 80% and the stoichiometry N was 2.

A word on the Kd: it is a measure of binding affinity in units of concentration. High values mean weaker binding, low ones tighter binding. The term stoichiometry N denotes the number of molecules, sites or subunits per partner or assembly.

The values above are taken from article PMC13570301.
